This note sets out measurements from US20260167699A1 (Chugai, published 2026).

In experiment [1] the target is T1, FcγRIIIa(F) extracellular domain with C-terminal His tag (human, UniProt P08637 17-208).
T1 construct: extracellular domain; polymorphic form F158; also called FcγRIIIa F type
In words: SPR (Biacore), captured antibody, FcγR analyte, 1:1 Langmuir fit.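 Note: surface plasmon resonance at 25 °C in HBS-EP+ running buffer, antibody captured on sensor chip, FcγR flowed over as analyte in the same buffer.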 On the technique in general: SPR reads the build-up and loss of mass on a sensor chip optically.

Experiment [2] has as its target T2, FcγRIIIa(V) extracellular domain with C-terminal His tag (human, UniProt P08637 17-208).
T2 construct: extracellular domain; polymorphic form V158; also called FcγRIIIa V type
The experiment is described as above.

Experiment [3] deals with T3, FcγRIIIa extracellular domain with C-terminal His tag (allotype not given) (human, UniProt P08637 17-208).
T3 construct: extracellular domain; also called 3a
In words: SPR; KD of GpH7-G1d/GpL16-k0 for FcγRIIIa divided by KD of this antibody.

In experiment [4] the target is T3, FcγRIIIa extracellular domain with …. In words: SPR (Biacore), captured antibody, FcγRIIIa analyte, 1:1 Langmuir fit.
Procedure: (§1) The antibody of interest was analyzed for its interaction with FcγR using a BiaCore™ T100, BiaCore™ A100, or BiaCore™ 4000 surface plasmon resonance system (GE Healthcare Japan Corp.). The running buffer used was HBS-EP+ (GE Healthcare Japan Corp.). The assay temperature was set to 25° C. The sensor chips used were: a chip prepared by immobilizing antigenic peptides onto Series S Sensor Chip CM5 (GE Healthcare Japan Corp.) by the amine coupling method; a chip prepared by immobilizing antigenic peptides biotinylated in advance onto Series S Sensor Chip SA (certified) (GE Healthcare Japan Corp.) through their interaction; a chip prepared by immobilizing protein L (ACTIGEN, BioVision, Inc.) onto Series S Sensor Chip CM5 (GE Healthcare Japan Corp.); and a chip prepared by immobilizing protein A/G (Thermo Fisher Scientific K.K.) onto Series S Sensor Chip CM5 (GE Healthcare Japan Corp.). The antibody of interest was captured onto any of these chips and allowed to interact with FcγR diluted with a running buffer. The antibody captured on the chip was washed off through the reaction of 10 mM glycine-HCl (pH 1.5) to regenerate the chip, which was repetitively used.
In the next experiment the target is T4, FcγRIIb (human, UniProt P31994 43-217).
T4 construct: extracellular domain; also called 2b
T4 sequence: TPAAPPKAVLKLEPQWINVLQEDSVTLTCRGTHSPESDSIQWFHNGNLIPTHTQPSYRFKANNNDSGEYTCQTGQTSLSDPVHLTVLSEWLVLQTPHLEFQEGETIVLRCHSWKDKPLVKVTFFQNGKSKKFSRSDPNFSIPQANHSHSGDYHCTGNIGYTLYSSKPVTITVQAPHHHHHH
Briefly: SPR (Biacore); He Ab binding / HeCon Ab (GpH7-A5/GpH7-B3/GpL16-k0) binding x100.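 Note: antibody captured on the sensor chip, soluble FcγR flowed over it in HBS-EP+ running buffer, 25 °C.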

The target of another experiment is T5, FcγRIIa(H) (human, UniProt P12318 34-217).
T5 construct: extracellular domain; also called 2aH
T5 sequence: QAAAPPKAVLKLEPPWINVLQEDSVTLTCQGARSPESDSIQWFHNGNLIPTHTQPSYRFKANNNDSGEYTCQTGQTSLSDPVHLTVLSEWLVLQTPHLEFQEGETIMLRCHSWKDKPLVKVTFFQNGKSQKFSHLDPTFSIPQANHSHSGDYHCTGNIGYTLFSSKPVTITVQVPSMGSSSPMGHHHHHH
The description is as above.

Another experiment deals with T6, FcγRIIa(R) (human, UniProt P12318 34-217).
T6 construct: extracellular domain; also called 2aR
T6 sequence: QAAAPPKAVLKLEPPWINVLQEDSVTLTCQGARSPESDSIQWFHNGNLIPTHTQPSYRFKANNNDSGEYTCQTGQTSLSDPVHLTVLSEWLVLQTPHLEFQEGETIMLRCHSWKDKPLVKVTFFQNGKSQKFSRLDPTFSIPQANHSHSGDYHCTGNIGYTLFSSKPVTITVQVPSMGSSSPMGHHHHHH
The description is as above.

A further experiment has as its target T7, FcγRIa (human, UniProt P12314 16-292).
T7 construct: extracellular domain; also called 1a
The experiment is described as above.

As a reminder, the Kd is the equilibrium constant for the complex coming apart. A higher Kd goes with a looser complex.

T7 sequence (P12314 other isoform, or with tags, fused parts or gaps): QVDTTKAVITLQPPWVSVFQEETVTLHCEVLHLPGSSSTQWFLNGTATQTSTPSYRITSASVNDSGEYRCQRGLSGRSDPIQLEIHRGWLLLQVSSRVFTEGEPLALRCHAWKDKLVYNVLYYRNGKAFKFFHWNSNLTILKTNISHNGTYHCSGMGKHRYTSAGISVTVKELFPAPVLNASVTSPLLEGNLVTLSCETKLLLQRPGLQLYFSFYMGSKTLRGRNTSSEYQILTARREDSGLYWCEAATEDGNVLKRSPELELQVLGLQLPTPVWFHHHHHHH
T3 sequence (P08637 other isoform, or with tags, fused parts or gaps): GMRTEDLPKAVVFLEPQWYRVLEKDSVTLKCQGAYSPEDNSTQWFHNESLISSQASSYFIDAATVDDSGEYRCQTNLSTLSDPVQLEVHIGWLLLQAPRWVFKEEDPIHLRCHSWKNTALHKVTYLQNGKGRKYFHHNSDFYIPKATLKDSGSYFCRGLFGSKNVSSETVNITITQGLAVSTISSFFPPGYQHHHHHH
T2 sequence (P08637 other isoform, or with tags, fused parts or gaps): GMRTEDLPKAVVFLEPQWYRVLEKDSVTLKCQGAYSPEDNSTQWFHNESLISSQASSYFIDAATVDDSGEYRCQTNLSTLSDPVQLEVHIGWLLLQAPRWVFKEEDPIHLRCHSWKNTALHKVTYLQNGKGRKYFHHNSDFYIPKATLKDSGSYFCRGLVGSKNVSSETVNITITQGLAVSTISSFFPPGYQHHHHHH
Procedure for FcγRIIa(H): as §1
Procedure for FcγRIIa(R): as §1
Procedure for FcγRIIb: as §1
Procedure for FcγRIa: as §1

B1: H240-Kn061/H240-Hl134/L73-k0 (antibody, human IgG1, kappa)
heavy 1: QDQLVQSGAEVKKPGASVKVSCKASGFNIKDTYIQWVRQAPGQGLEWMGRIDPLRKQTKYREKFEGRVTITADTSTNTAYMELSSLRSEDTAVYYCVRSGREFDYWGQGTLVTVSSASTKGPSVFPLAPSSKSTSGGTAALGCLVKDYFPEPVTVSWNSGALTSGVHTFPAVLQSSGLYSLSSVVTVPSSSLGTQTYICNVNHKPSNTKVDKKVEPKSCDKTHTCPPCPAPEYYWGPSVFLFPPKPKDTLMISRTPEVTCVVVDVSDEDPEVKFNWYVDGVEVHNAKTKPREEQYNATYRVVSVLTVLHQDWLNGKEYKCKVSNKALPAPIEKTISKAKGQPREPQVCTLPPSRDELTKNQVSLWCLVKGFYPSDIAVEWESNGQPENNYKTTPPVLDSDGSFFLYSKLTVDKSRWQQGNVFSCSVMHEALHNHYTQKSLSLSP
heavy 2: QDQLVQSGAEVKKPGASVKVSCKASGFNIKDTYIQWVRQAPGQGLEWMGRIDPLRKQTKYREKFEGRVTITADTSTNTAYMELSSLRSEDTAVYYCVRSGREFDYWGQGTLVTVSSASTKGPSVFPLAPSSKSTSGGTAALGCLVKDYFPEPVTVSWNSGALTSGVHTFPAVLQSSGLYSLSSVVTVPSSSLGTQTYICNVNHKPSNTKVDKKVEPKSCDKTHTCPPCPAPEYYWGPSVFLFPPKPKDTLMISRTPEVTCVVVDVSDEDPEVKFNWYVDGVEVHNAKTKPREEQYNATYRVVSVLTVLHQDWLNGKEYKCKVSNKALPAPIEKTISKAKGQPREPQVYTLPPSRCELTKNQVSLSCAVKGFYPSDIAVEWESNGQPENNYKTTPPVLDSDGSFFLVSKLTVDKSRWQQGNVFSCSVMHEALHNHYTQKSLSLSP
light: DIQMTQSPSSLSASVGDRVTITCRASQDIHKYIAWYQQKPGQAPRLLIQYTSTLQPGVPSRFSGSGSGTDYTFTISSLQPEDIATYYCLQYEQLRTFGGGTKVEIKRTVAAPSVFIFPPSDEQLKSGTASVVCLLNNFYPREAKVQWKVDNALQSGNSQESVTEQDSKDSTYSLSSTLTLSKADYEKHKVYACEVTHQGLSSPVTKSFNRGEC
notes: anti-epiregulin IgG1 called homodimerized: L234Y/L235Y/G236W/H268D/S298A in both H chains; also called H240-Kn061/H240-HI134/L73-k0
As for B1, the Kd in experiment [1] stood at 660 nM; in experiment [2], 86 nM.

B2: GpH7-G1d/GpL16-k0 (antibody, human IgG1, kappa)
heavy: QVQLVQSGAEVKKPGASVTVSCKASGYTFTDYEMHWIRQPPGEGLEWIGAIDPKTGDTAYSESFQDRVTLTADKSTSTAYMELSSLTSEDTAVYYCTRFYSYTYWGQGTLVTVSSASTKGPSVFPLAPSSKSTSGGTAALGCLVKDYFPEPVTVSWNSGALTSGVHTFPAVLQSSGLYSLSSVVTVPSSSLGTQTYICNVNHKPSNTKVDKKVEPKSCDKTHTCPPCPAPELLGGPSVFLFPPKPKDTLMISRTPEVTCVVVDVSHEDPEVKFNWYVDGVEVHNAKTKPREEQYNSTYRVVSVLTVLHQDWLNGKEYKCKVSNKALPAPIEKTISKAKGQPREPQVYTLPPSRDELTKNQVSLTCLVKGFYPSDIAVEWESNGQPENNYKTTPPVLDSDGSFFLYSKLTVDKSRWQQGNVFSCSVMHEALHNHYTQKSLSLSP
light: DIVMTQSPLSLPVTPGEPASISCQASESLVHSNRNTYLHWYLQKPGQSPQLLIYKVSNRFSGVPDRFSGSGSGTDFTLKISRVEAEDVGVYYCSQNTHVPPTFGQGTKVEIERTVAAPSVFIFPPSDEQLKSGTASVVCLLNNFYPREAKVQWKVDNALQSGNSQESVTEQDSKDSTYSLSSTLTLSKADYEKHKVYACEVTHQGLSSPVTKSFNRGEC
notes: anti-glypican 3 IgG1, C-terminal Gly and Lys of the H chain deleted; also called naturally occurring IgG1
For B2, the “KD ratio1” value in experiment [3] amounted to 1 fold. In experiment [4], this molecule gave a Kd of 1200 nM.

B3: GpH7-A5/GpH7-B3 variant S337_11K/GpL16-k0 (antibody, human IgG1, kappa)
heavy 1: not shown
heavy 2: not shown
light: DIVMTQSPLSLPVTPGEPASISCQASESLVHSNRNTYLHWYLQKPGQSPQLLIYKVSNRFSGVPDRFSGSGSGTDFTLKISRVEAEDVGVYYCSQNTHVPPTFGQGTKVEIERTVAAPSVFIFPPSDEQLKSGTASVVCLLNNFYPREAKVQWKVDNALQSGNSQESVTEQDSKDSTYSLSSTLTLSKADYEKHKVYACEVTHQGLSSPVTKSFNRGEC
notes: heterodimerized anti-glypican 3 IgG1, only the GpH7-B3 chain mutated; also called He Ab
For the molecule B3, in the experiment with FcγRIIb, the “He/Con 2b” value was 103%. Moreover, the “He/Con 2aH” value in the experiment with FcγRIIa(H) was found to be 102%. In the experiment with FcγRIIa(R), the “He/Con 2aR” value is 105%. In the experiment with FcγRIa, the “He/Con 1a” value worked out at 101%.

B4: GpH7-A5/GpH7-B3 variant S337_07I/GpL16-k0 (antibody, human IgG1, kappa)
heavy 1: not shown
heavy 2: not shown
light: DIVMTQSPLSLPVTPGEPASISCQASESLVHSNRNTYLHWYLQKPGQSPQLLIYKVSNRFSGVPDRFSGSGSGTDFTLKISRVEAEDVGVYYCSQNTHVPPTFGQGTKVEIERTVAAPSVFIFPPSDEQLKSGTASVVCLLNNFYPREAKVQWKVDNALQSGNSQESVTEQDSKDSTYSLSSTLTLSKADYEKHKVYACEVTHQGLSSPVTKSFNRGEC
notes: as for B3
Turning to B4, in the experiment with FcγRIIb, the “He/Con 2b” value came out at 113%. Besides, in the experiment with FcγRIIa(H), the “He/Con 2aH” value was 107%. Also, the “He/Con 2aR” value with FcγRIIa(R) worked out at 111%. Moreover, the “He/Con 1a” value in the experiment with FcγRIa worked out at 102%.

B5: GpH7-A5/GpH7-B3 variant S337_08L/GpL16-k0 (antibody, human IgG1, kappa)
heavy 1: not shown
heavy 2: not shown
light: DIVMTQSPLSLPVTPGEPASISCQASESLVHSNRNTYLHWYLQKPGQSPQLLIYKVSNRFSGVPDRFSGSGSGTDFTLKISRVEAEDVGVYYCSQNTHVPPTFGQGTKVEIERTVAAPSVFIFPPSDEQLKSGTASVVCLLNNFYPREAKVQWKVDNALQSGNSQESVTEQDSKDSTYSLSSTLTLSKADYEKHKVYACEVTHQGLSSPVTKSFNRGEC
notes: as for B3
Turning to B5, the “He/Con 2b” value with FcγRIIb stood at 109%. Moreover, in the experiment with FcγRIIa(H), the “He/Con 2aH” value amounted to 106%. In addition, in the experiment with FcγRIIa(R), the “He/Con 2aR” value was 109%. For the same molecule, the “He/Con 1a” value with FcγRIa was determined as 102%.

B6: GpH7-A5/GpH7-B3 variant S337_14T/GpL16-k0 (antibody, human IgG1, kappa)
heavy 1: not shown
heavy 2: not shown
light: DIVMTQSPLSLPVTPGEPASISCQASESLVHSNRNTYLHWYLQKPGQSPQLLIYKVSNRFSGVPDRFSGSGSGTDFTLKISRVEAEDVGVYYCSQNTHVPPTFGQGTKVEIERTVAAPSVFIFPPSDEQLKSGTASVVCLLNNFYPREAKVQWKVDNALQSGNSQESVTEQDSKDSTYSLSSTLTLSKADYEKHKVYACEVTHQGLSSPVTKSFNRGEC
notes: as for B3
As for B6, the “He/Con 2b” value with FcγRIIb stood at 114%. For the same molecule, the “He/Con 2aH” value in the experiment with FcγRIIa(H) worked out at 110%. In addition, in the experiment with FcγRIIa(R), the “He/Con 2aR” value amounted to 112%. Moreover, the “He/Con 1a” value with FcγRIa stood at 102%.

B7: GpH7-A5/GpH7-B3 variant S337_19Q/GpL16-k0 (antibody, human IgG1, kappa)
heavy 1: not shown
heavy 2: not shown
light: DIVMTQSPLSLPVTPGEPASISCQASESLVHSNRNTYLHWYLQKPGQSPQLLIYKVSNRFSGVPDRFSGSGSGTDFTLKISRVEAEDVGVYYCSQNTHVPPTFGQGTKVEIERTVAAPSVFIFPPSDEQLKSGTASVVCLLNNFYPREAKVQWKVDNALQSGNSQESVTEQDSKDSTYSLSSTLTLSKADYEKHKVYACEVTHQGLSSPVTKSFNRGEC
notes: as for B3
For the molecule B7, the “He/Con 2b” value with FcγRIIb stood at 109%. In addition, the “He/Con 2aH” value in the experiment with FcγRIIa(H) was 104%. Besides, the “He/Con 2aR” value in the experiment with FcγRIIa(R) came to 108%. Besides, in the experiment with FcγRIa, the “He/Con 1a” value was found to be 101%.

B8: GpH7-A5/GpH7-B3 variant S337_15Y/GpL16-k0 (antibody, human IgG1, kappa)
heavy 1: not shown
heavy 2: not shown
light: DIVMTQSPLSLPVTPGEPASISCQASESLVHSNRNTYLHWYLQKPGQSPQLLIYKVSNRFSGVPDRFSGSGSGTDFTLKISRVEAEDVGVYYCSQNTHVPPTFGQGTKVEIERTVAAPSVFIFPPSDEQLKSGTASVVCLLNNFYPREAKVQWKVDNALQSGNSQESVTEQDSKDSTYSLSSTLTLSKADYEKHKVYACEVTHQGLSSPVTKSFNRGEC
notes: as for B3
Take B8: the “He/Con 2b” value with FcγRIIb worked out at 109%. Also, the “He/Con 2aH” value with FcγRIIa(H) was 106%. For the same molecule, the “He/Con 2aR” value in the experiment with FcγRIIa(R) came out at 107%. In the experiment with FcγRIa, the “He/Con 1a” value stood at 101%.

B9: GpH7-A5/GpH7-B3 variant S337_20W/GpL16-k0 (antibody, human IgG1, kappa)
heavy 1: not shown
heavy 2: not shown
light: DIVMTQSPLSLPVTPGEPASISCQASESLVHSNRNTYLHWYLQKPGQSPQLLIYKVSNRFSGVPDRFSGSGSGTDFTLKISRVEAEDVGVYYCSQNTHVPPTFGQGTKVEIERTVAAPSVFIFPPSDEQLKSGTASVVCLLNNFYPREAKVQWKVDNALQSGNSQESVTEQDSKDSTYSLSSTLTLSKADYEKHKVYACEVTHQGLSSPVTKSFNRGEC
notes: as for B3
Turning to B9, in the experiment with FcγRIIb, the “He/Con 2b” value was 119%. For the same molecule, in the experiment with FcγRIIa(H), the “He/Con 2aH” value turned out to be 108%. Further, the “He/Con 2aR” value in the experiment with FcγRIIa(R) was determined as 112%. In the experiment with FcγRIa, the “He/Con 1a” value worked out at 102%.

B10: GpH7-A5/GpH7-B3 variant S337_16H/GpL16-k0 (antibody, human IgG1, kappa)
heavy 1: not shown
heavy 2: not shown
light: DIVMTQSPLSLPVTPGEPASISCQASESLVHSNRNTYLHWYLQKPGQSPQLLIYKVSNRFSGVPDRFSGSGSGTDFTLKISRVEAEDVGVYYCSQNTHVPPTFGQGTKVEIERTVAAPSVFIFPPSDEQLKSGTASVVCLLNNFYPREAKVQWKVDNALQSGNSQESVTEQDSKDSTYSLSSTLTLSKADYEKHKVYACEVTHQGLSSPVTKSFNRGEC
notes: as for B3
Regarding B10, in the experiment with FcγRIIb, the “He/Con 2b” value is 114%. Moreover, the “He/Con 2aH” value with FcγRIIa(H) was determined as 108%. Further, the “He/Con 2aR” value in the experiment with FcγRIIa(R) worked out at 111%. Moreover, the “He/Con 1a” value with FcγRIa is 101%.
